Measured values: patent publication US12006519B2, “Polymerase mutants and use with 3′-OH unblocked reversible terminators” (Agilent Technologies, Inc., priority 2021, dated 2024)

Tests used:
Type in all cases: biochemical
LTA-2 [1] = assay: Template-independent incorporation of LTA-2, LTU-2, LTG-2, LTC-2 to priming strands
Procedure: The template-independent DNA synthesis reactions employed 7.5 U TdT (Promega) or 180 nM (3×over primer) Pfu26 (D141A/E143A/A486L/Y546H/K477W/L409Y) or Pfu48 (D141A/E143A/A486R/Y546H/K477W/L409Y). Varying concentrations of dATP were added to 2 μM (TdT) or 60 nM (Pfu) T7 FOR primer (6′Fam […]) (SEQ ID NO:6) in duplicate reactions containing 1×TdT buffer with CoCl2(Promega) or 1×ThermoPol buffer (NEB). Reactions were incubated for 30 min. at 37° C. (TdT) or 60° C. (Pfu), and then inactivated with heat (TdT; 10 min. at 70° C.) or EDTA (1 ul 500 uM EDTA). Reaction products were exposed to UV using a Stratalinker (15-watt bulbs, […], 10 min). Reactions were diluted in water (TdT, 1:333; Pfu, 1:10) and 1 μl (TdT) or 0.5 μl (Pfu) aliquots were brought up to 10 μl with HiDI/LIZ 120 Size Standard. Products were heated at 95° C. for 5 min., cooled on ice for 2 min., and then analyzed on an ABI 3500 capillary electrophoresis system ([…] capillary, filter set #5, assay=GE5 LIZ120).
In this example, primer extension was carried out with LTA-2 (FIG. 1F) as a Rp+Sp racemic mixture of α-thiotriphosphate, using the conditions described in Example 7.
In further experiments, single-base extension reactions (10 ul) were performed with an equimolar mixture (3 uM each) of two single-stranded oligommcleotides:
Both were labeled with Fam but distinguishable by their lengths using capillary electrophoresis. Primer extension reactions were performed using the following three Pfu mutants at a concentration of 18 nM polymerase: • Pfu10: Pfu polymerase with D141A/E143A/A486L/Y546H/K477W mutations (SEQ ID NO:2) • Pfu26: Pfu polymerase with D141A/E143A/A486L/Y546H/K477W/L409Y mutations (SEQ ID NO:4) • Pfu48: Pfu polymerase with D141A/E143A/A486R/Y546H/K477W/L409Y mutations (SEQ ID NO:5) The extension reactions also employed individual αS-modified LTs in Rp+Sp racemic mixture (namely, LTA-2, LTU-2, LTG-2, and LTC-2) at final concentrations of 5 uM. LTU-2, LTG-2, and LTC-2 are all C7 or C5-hydroxymethyl-a-tert-butyl-2-nitrobenzyl modified reversible terminators like LTA-2, with uracil, guanine, and cytosine in place of adenine. […] Reactions were incubated, stopped, UV-treated, and analyzed as described in Example 7.
(§1) Primer extensions were carried out in duplicate 25 ul reactions containing 7.5 U calf thymus TdT, 1×Promega TdT buffer (with CoCl2), varying concentrations of LTA-1 (100 uM, 50 uM, 10 uM, 5 uM, or 1 uM), and either 2 uM (FIG. 11A to 11C) or 80 nM (FIG. 11D to 11F) of a priming strand (Fam-labeled T7 F primer (6Fam […]), SEQ ID NO:8). Controls were performed without the addition of a polymerase. Primer extensions were also carried out in reactions containing the Pfu26 mutant polymerase, 60 nM of the priming strand, and various concentrations (10 μM or 5 μM or 1 μM) of LTA-1 or LTA-2.

LTA-2 [2] = assay: Multi-cycle template-independent addition of LTA-2 (TiEOS); settings: 7-deaza-7-hydroxymethyl-α-tert-butyl-2-nitrobenzyl modified LTA, 3 or 6 cycles
Procedure: This example tested the multi-cycle addition of a 3′-OH unblocked reversible terminator (LTA-2, shown in FIG. 1F) to the 3′ end of a single-stranded priming strand using the Pfu26 mutant polymerase. Single-base extension assays were performed as described in Example 7 using Pfu26 with modified LTA-2 that has a-tert-butyl substituted 2-nitrobenyl terminating group attached to 7-deaza-C7hydroxymethyl group. The modified LTA-2 optionally contains the αS triphosphate modification and HPLC-purified to isolate the Sp isomer (FIGS. 13A and 13C). At each incorporation cycle (3 cycles-FIGS. 13A&13B; 6 cycles-FIG. 13C), 1 ul was removed and saved on ice for ABI 3500 analysis. At each cycle, the remaining reaction volume was purified using MyOne T1 […] beads as follows (for the 3-cycle experiment). 127.5 ul of beads were washed 2×in 1 ml wash solution and resuspended in the original volume with the wash solution. A biotinylated, antisense T7 (underlined) primer with spacer (5′-CCCTATAGTGAGTCGTATACGGAGCATA-biotin) was added at a final concentration of 180 nM. The beads and capture oligo were mixed at 300 rpm for 30 min. at room temperature, washed 2×in 500 ul wash solution, and resuspended in 150 ul of the same. […] After purification (cycles 2-6), 2 ul of fresh enzyme/LTA mix was added, and the primer extensions were performed and analyzed as described above.

LTA-1 = assay: Template-independent incorporation of LTA-1 to a priming strand
Procedure: This example tested the addition of a 3′-OH unblocked reversible terminator (LTA-1, shown in FIG. 1E, or LTA-2, shown in FIG. 1F) to the 3′ end of a single-stranded priming strand. The extension reaction was performed with 2 uM or 80 nM of a priming strand and varying concentrations (100/50/10/5/1 μM) of the reversible terminator. The performance of the Pfu26 polymerase was compared to TdT polymerase.
as §1
Reactions were incubated at 37° C. for 30 min., and then heat-killed for 10 min. at 70° C. Reaction products were split in half, and one-half was treated with UV as described in Example 7. Reactions were then diluted 1:333 (2 uM primer) or 1:13 (80 nM primer) in water, and 0.5 ul portions were analyzed by capillary electrophoresis using the conditions provided in Example 7.

B1: Pfu26: Pfu D141A/E143A/A486L/Y546H/K477W/L409Y, SEQ ID NO:4 (protein)
chain: MILDVDYITEEGKPVIRLFKKENGKFKIEHDRTFRPYIYALLRDDSKIEEVKKITGERHGKIVRIVDVEKVEKKFLGKPITVWKLYLEHPQDVPTIREKVREHPAVVDIFEYDIPFAKRYLIDKGLIPMEGEEELKILAFAIATLYHEGEEFGKGPIIMISYADENEAKVITWKNIDLPYVEVVSSEREMIKRFLRIIREKDPDIIVTYNGDSFDFPYLAKRAEKLGIKLTIGRDGSEPKMQRIGDMTAVEVKGRIHFDLYHVITRTINLPTYTLEAVYEAIFGKPKEKVYADEIAKAWESGENLERVAKYSMEDAKATYELGKEFLPMEIQLSRLVGQPLWDVSRSSTGNLVEWFLLRKAYERNEVAPNKPSEEEYQRRLRESYTGGFVKEPEKGLWENIVYLDFRAYYPSIIITHNVSPDTLNLEGCKNYDIAPQVGHKFCKDIPGFIPSLLGHLLEERQKIKTKMKETQDPIEWILLDYRQKLIKLLANSFYGYYGYAKARWYCKECAESVTAWGRKYIELVWKELEEKFGFKVLYIDTDGLHATIPGGESEEIKKKALEFVKYINSKLPGLLELEYEGFYKRGFFVTKKRYAVIDEEGKVITRGLEIVRRDWSEIAKETQARVLETILKHGDVEEAVRIVKEVIQKLANYEIPPEKLAIYEQITRPLHEYKAIGPHVAVAKKLAAKGVKIKPGMVIGYIVLRGDGPISNRAILAEEYDPKKHKYDAEYYIENQVLPAVLRILEGFGYRKEDLRYQKTRQVGLTSWLNIKKS
modifications: Mutant of Pyrococcus furiosus Polymerase
In the case of B1, the “Template-independent incorporation of LTA-2, LTU-2, LTG-2 and LTC-2 (in words)” value (LTA-2 [1]; 18 nM polymerase, 5 uM terminators, CE2 and T7 oligonucleotides) is reported as “superior to Calf thymus Terminal Transferase (TdT)”, the “Template-independent incorporation of LTA-2 (in words)” value (LTA-2 [1]; single-stranded priming strand) is reported as “efficient incorporation and termination” and the “Multi-cycle addition of LTA-2 (in words)” value (LTA-2 [2]) is reported as “did not generate an individual product with 100% efficiency after 2-3 rounds of TiEOS”. For the same molecule, the “Template-independent incorporation of LTA-1 (in words)” value (LTA-1) was “incorporate LTA-1 less efficiently”.
